In this experiment the target is T1, mouse ICAM-1 expressed on activated mouse endothelial cells (mouse, UniProt P13597 28-537).
T1 construct: whole, on cells
Description: FITC-labeled γ3 carriers on activated endothelial cells, fluorescence microscopy, 1 h 37 C. The procedure: Binding of FITC-labeled γ3 carriers to activated HUVEC cells (bars) vs ICAM-1-negative 293 cells (dotted line) was quantified by fluorescence microscopy after 1 h incubation at 37° C., in the absence or presence of excess γ3, anti-ICAM, or γ3 scramble peptide. The γ3 carriers bound to native ICAM-1 expressed by both activated human and mouse endothelial cells, but not control 293 cells which are known to be voided of ICAM-1 expression (FIG. 5C).

This is an account of results in patent publication US20130004490A1 (UNITED STATES OF AMERICA AS REPRESENTED BY THE SECRETARY …, published 2013).

T1 sequence (P13597 28-537): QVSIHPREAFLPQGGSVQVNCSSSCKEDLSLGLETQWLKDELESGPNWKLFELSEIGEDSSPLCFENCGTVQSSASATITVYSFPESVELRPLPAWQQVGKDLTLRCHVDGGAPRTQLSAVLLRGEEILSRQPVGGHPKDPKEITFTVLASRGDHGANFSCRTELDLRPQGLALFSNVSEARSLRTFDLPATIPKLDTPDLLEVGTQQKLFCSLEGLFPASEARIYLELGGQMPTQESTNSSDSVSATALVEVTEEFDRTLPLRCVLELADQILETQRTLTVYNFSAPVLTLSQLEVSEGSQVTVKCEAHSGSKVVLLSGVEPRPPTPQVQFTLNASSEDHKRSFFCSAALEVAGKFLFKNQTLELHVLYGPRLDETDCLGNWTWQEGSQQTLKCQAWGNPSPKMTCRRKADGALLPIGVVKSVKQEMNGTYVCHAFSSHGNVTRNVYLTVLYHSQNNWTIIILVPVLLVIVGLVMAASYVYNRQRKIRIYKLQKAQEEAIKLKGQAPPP

As for NNQKIVNLKEKVAQLEA (also called γ3 peptide; γ3 carriers) [ICAM-1 affinity peptide γ3, a 17-mer polypeptide derived from fibrinogen], the binding result is listed as “binds”.
